Source: the supplement of paper PMC9170038

System: K4 kissing-loop RNA reporter
Experiment: apparent KD of K4 kissing-loop reporter; higher = weaker reporter binding
Details: Eterna round: R107
Protocol: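 RNA-MaP round R107: designed RNA switches with theophylline, tryptophan, arginine or FMN aptamers are transcribed on-chip within common flanks. They are titrated with a labelled K4 kissing-loop RNA reporter in RNA-MaP buffer (100 mM Tris pH 7.5, 80 mM KCl, 4 mM MgCl2), without ligand or with the indicated ligand. Median apparent KD per design.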

[1] = input ligand: theophylline 20 uM
[2] = input ligand: tryptophan 2.4 mM
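Further: bound reporter read as fluorescence of individual clusters on recovered sequencing chips by microscopy, with normalized cluster intensities fitted with a binding model.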

Row | Sequence | apparent KD of K4 kissing-loop reporter (input ligand: FMN 200 uM) [µM] | apparent KD of K4 kissing-loop reporter (input ligand: arginine 13.2 mM) [µM] | apparent KD of K4 kissing-loop reporter (input ligand: none) [µM] | apparent KD of K4 kissing-loop reporter [1] [µM] | apparent KD of K4 kissing-loop reporter [2] [µM]
1 | UUUAACGAGUGAUGUUCGAAGAGUAAUGGUGAGGAUAUCGAUUUUUCGAGAAGGCGCCUCGAAGUGAUACGAAAGUAUCGCUUCG [FMN A 6] | 0.239 | 0.247 | 0.286 | 0.253 | 0.255
2 | GGAUCCACCAGUGAUGUUGGAGAAAACUUCAAGGAUAUGACGAAAGUCAGAAGGUGGUAGACUGGUCAAAGUCCGGUCGGAUCCA [FmnA10 U29+U66] | 0.658 | 0.12 | 0.459 | 0.147 | 0.194
3 | AGUGAUGUGGGAAGGAGCGCUAGUACACUUCAGUGAUGUUGAAGUGAUGAAUUAGUGUAUUGGCAGGUAGGUCGCCUAGAUGUUA [KL-XARG-B14] | 0.0974 | 0.0591 | 0.0829 | 0.0654 | 0.0725
4 | GUUUCAGUGAUGUUGGAAGGCGAGCGGGAUACCAGCCAAGACUCAGGCCCUUGGCAGCCCACAUAUCCCACGUAGAUAGUAGCUC [Same State - Theophylline A (Freestyle 14)] | 0.161 | 0.116 | 0.133 | 0.153 | 0.137
5 | UGACUGGACUGAAGGAGCGCUGAACUCCUAGUGAUGUUAGGAAAACGAGACAAAGUCUCGAAGCAGGUAGGUCGCAGUCUAGUCU | 0.138 | 0.101 | 0.112 | 0.138 | 0.115
6 | AAACGCUGGUGAAUAACACUAGCGAAUUCGCGAGGACCGGUACGGCCGCCACUCGCUAACUGCGAGUGAUGUUCGAUAAUAAAAU [Mat - Mod of OpenEnded 3 - D2] | 0.141 | 0.107 | 0.154 | 0.189 | 0.142
7 | UGAGAGUACCGGAUGGAGAAAUUGUAUGAUACCAGAGCAGAUUACCUCCCUUGGCAGCAUGCAUCCUGCUAGUGAUGUUGGCAAC [theeternabot_sameState_KL_Theo_A_48] | 0.676 | 0.459 | 0.741 | 0.669 | 0.535
8 | UGAUAAAGCAGUGAUGUUGCAAGAAAUGAUACCAGUUAAGAAGAGAACCCUUGGCAGCAUAAAGUGCGCUCUAAUGAGUGUGCUU [whbob_SS_Theo_A_w50] | 0.0888 | 0.143 | 0.123 | 0.179 | 0.0876
9 | GCCGUACGCAUGGAUACCAGCAAUUAUGCUCGUAUCCUAGUGAUGUUAGUGGCGAAUAUUUGCCCUUGGCAGCCAUGCGUACGGC | 1.08 | 0.841 | 1.16 | 0.691 | 0.936
10 | GGGCGUUACGGAGUGAUGUUCCGUAGCGAUACCAGCCAUUGCGAUGGCCCUUGGCAGCGCUAUAAGCAUAGAAUUGUAGCGCUUA [Theo A Ex t7b] | 0.109 | 0.0941 | 0.108 | 0.102 | 0.105
11 | AAUAACUAGUAUAUUUGUAAUAAAACAGAUACCAGUGAUAAUAAACACCCUUGGCAGCUGAUCGAGUGAUGUUCGUUUAUUUUAA [JR_SSTheophyA_Sub004] | 0.102 | 0.0965 | 0.124 | 0.13 | 0.0785
12 | AACUCUCAGACACCUGAGUGAUGUUCAGGCCGAGGACCGGUACGGCCGCCACUCGGGUCUGAGAGAGGUUAUCAAAGAUAGCCAA [Omei KL Tryp A SS A v3] | 0.675 | 0.244 | 0.336 | 0.304 | 0.338
13 | AGUCGCAGUGAUGUUGCGAUUCCGUUGAGGGAGGAUAUUGGUAAUACAAGAAGGCCCGGCUACGGGAGAUGUUAGCAAUAGGGCC [Exclusion FMN A GF20] | 0.092 | 0.0945 | 0.063 | 0.065 | 0.0639
14 | UGAUAGGACAGAAGGAGCGGUAGUGAUGUUACCAAAAGUAUAAGGUGUCAAAAGACACCCUACCAGGUAGGUCGCUGUCCUAUCU | 0.292 | 0.295 | 0.367 | 0.506 | 0.286
15 | GCCGUACGCAUGGAUACCAGACAACCAUUCUAAAUUUUGUGUCCGGUAGUGAUGUUACCUGUCCCUUGGCAGCCAUGCGUACGGC | 0.306 | 0.261 | 0.319 | 0.317 | 0.338
16 | AAGCCAGAGAUUGCUGCGGGUUCCAGAGAUACCAGCCGUAUUGAAGGCCCUUGGCAGCUCGAGUGAUGUUCGAGCCGUCUCCGGC [Onte] | 0.111 | 0.11 | 0.114 | 0.116 | 0.113
17 | UGGCGAGUGAUGUUCGUUGUUGUAGUGUGUCGAGGACCGGUACGGCCGCCACUCGGGUUGGUUGUUGUUGUUGUUGUUGUUGUUG [First Shot] | 0.218 | 0.187 | 0.196 | 0.292 | 0.101
18 | AAAACUCAUGGCUUAUAUCCGUGUCUCGAAGGAGCGUACAGCGGUACAGGUAGGUCGCGAGACAUGAGUGAUGUUCAUGUGUAAA [KL-XArg-A6 #analogue] | 0.109 | 0.109 | 0.129 | 0.169 | 0.104
19 | UGAUACCAGACGGCCGCCACUAGACCAGUCAAAGACUGGAAGUGAUGUUUGAGGAGUGAUGUUCCUAGGACCGGGUCUGGUAUCU [TrypBX 3 #Palindromic #SwitchBubble #StaticStem] | 0.0979 | 0.0817 | 0.0905 | 0.089 | 0.0415
20 | AAUAUAAAGCAGUGAUGUUGCUUAUGAGAAGGAGCGCACGAAAGUGCAGGUAGGUCGCUCAGCCAAGUGGACGAAAACGUCCACA [whbob_SS_Arginine_A_sa106] | 0.0821 | 0.0925 | 0.0863 | 0.0853 | 0.0721
21 | GCCGUAGAUUGAAGGAGCGGCAUUAACGAUGUUCUGGUAGUGAUGUUACCUCAGCAGACAUGCCAGGUAGGUCGCAAUCUACGGC | 0.0725 | 0.0746 | 0.0936 | 0.0766 | 0.077
22 | AUUUGUUUAUGUGAUACCAGACUUUGCAGUGAUGUUGCAUUUAUUUUAGAAUAUAAUUUAGUCCCUUGGCAGCACUAUGUAUUUA [JR_SSTheophyB_Sub008] | 0.0671 | 0.11 | 0.0738 | 0.109 | 0.0634

Row | Sequence | apparent KD of K4 kissing-loop reporter (input ligand: FMN 200 uM) [µM] | apparent KD of K4 kissing-loop reporter (input ligand: arginine 13.2 mM) [µM] | apparent KD of K4 kissing-loop reporter (input ligand: none) [µM] | apparent KD of K4 kissing-loop reporter [1] [µM] | apparent KD of K4 kissing-loop reporter [2] [µM]
23 | CGUAGUUGGGCGGCCGCCACUUGAAAAGCUUUGCCAAAGGCAGAGCUCUAGAGUGAUGUUCUGGCAAGGACCGGGUCCAACUACA [#03 K4 Tryptophan B Same State] | 0.869 | 0.719 | 0.872 | 0.59 | 0.358
24 | UUUCGUAGAAGUGAUACCAGACUGGAAAGUGAUGUUUUCCAAUUAUUUAAAUCCUUAUCUGUCCCUUGGCAGCACAGUUUAUUUA [JR_Nu_ExcTheophyB_Sub027] | 0.0718 | 0.0813 | 0.0755 | 0.0976 | 0.07
25 | GAUUCAGUGAUGUUGGAAGGCGAGCGGGAUACCAGCCGAGACUCAGGCCCUUGGCAGCCCACAUAUCCCAGGUAGAUAGUCGCUC [Same State - Theophylline A (Freestyle 10)] | 0.343 | 0.266 | 0.325 | 0.383 | 0.265
26 | AAGUCACAGGCAGGAUAUGCUUAGUAUUAAGGCCAUAUAUACGUAUAGAGUGAUGUUUUGUACCAGGCAGAAGGGCUACAUCCGU [FMN B Excl V4 (+U)] | 0.93 | 0.44 | 0.656 | 0.645 | 0.463
27 | GUUACGCAUGGAAGGAGCGCAGGCUCAACAAAUAGCUCAGUGAUGUUGAGCAUAUUAAAACUGCAGGUAGGUCGCCAUGUGUAAC [Ex Arginine B K4 23] | 0.651 | 0.547 | 0.657 | 0.671 | 0.588
28 | GGGAGUAGUGCGGCCGCCACUGUGAAAGAAGAAGAAUAUAGUGAUGUUAUAUAGGAAUUAAAGAAUAGGACCGGGCAUUAGAUUU [SSTRyptB.Q] | 0.248 | 0.198 | 0.26 | 0.311 | 0.184
29 | UAGUGAUGCUAUGUUAGGUUUUUUAGGGAAGGAGCGCCAAAGAAGGCAGGUAGGUCGCCCUAUAUUCCCAGUGAUGUUGGGUAUU [Skye_Ex_AA] | 0.0648 | 0.0506 | 0.0749 | 0.0936 | 0.0655
30 | CUCGAGUGAUGUUCGAUUAUUUAUACAGAUACCAGUGAAUUUUAACACCCUUGGCAGCUGGUUGUAUCUUUGUUUUUUACACAAG [JR_ExcTheophyA_Sub006] | 0.117 | 0.177 | 0.118 | 0.172 | 0.107
31 | CGCAAUCGAACUGAUACCAGUCAUAAUGGCUGAGAAGCACGAGUGAUGUUCGUAACGAAUGACCCUUGGCAGCAGUUCGAUUGCG [Theo B SS t8] | 0.706 | 0.807 | 0.944 | 0.33 | 0.839
32 | ACACUAUCGUCAUAGACGGUAGUGAAAGCUCAGGAUAUGAGUGAUGUUAGAAGGGAGUAAAUCUUAGGUAUCGAAUAGAUACCAA [FmnA 7 #K4BetweenAptamer #OpenEnded] | 1.22 | 0.364 | 0.508 | 0.287 | 0.416
33 | UGACUACAUCCUAGUGAUGUUUAGGAUAUGUAGGAUAUGCUGAUAAGCAGAAGGACAGAAGGAAGUGAUGUUCUUAAAGUAGUCU [FmnAX 29 #DoubleAptamer #Double K4 #SwitchBubble #StaticStem] | 0.644 | 0.783 | 1.05 | 0.76 | 0.802
34 | GGUCGGAGUGAUGUUCCGAGCUUCAGUCAUCGAGGACCGGUACGGCCGCCACUCGUCUACUAUGACGUAUCACCCUCCACGUGUU [theeternabot_sameState_KL_Trp_A_33] | 0.15 | 0.142 | 0.146 | 0.145 | 0.125
35 | UGAUACCAGACGGCCGCCACUCCCGCAGGUCAAAGACCUGCGAAGAAGGUUCUUUAGUGAUGUUGGAGGACCGGGUCUGGUAUCU [FiskerMod 21 - Jieux - Exclusion - Tryptophan B] | 0.735 | 0.312 | 0.744 | 0.417 | 0.523
36 | AAGGUUCGUGGAAGGAGCGCCCGUGCGACUCGUUCAGUAAGUGAAGUCCGAGUGAUGUUCGGGCAGGUAGGUCGCCACGGGCAAA [Usontezaon] | 0.196 | 0.137 | 0.16 | 0.123 | 0.157
37 | AAGAGGUAGGCGGCCGCCACUAGUUGUGAACACAUACGAGCCAGUGAUGUUGGUAUUGUGGGCGGUAGGACCGGGCCUACCUGAA [Exclusion - Tryptophan B (Freestyle 19)] | 0.319 | 0.336 | 0.358 | 0.322 | 0.281
38 | GUAUCGCUAGGAGGAUAUUUCGUUUUUCAUAGCAAUGGCUAUGCGGAGUGAUGUUCCGAUUUACCGGAAGAAGGCCUAGUGAUAC [FMN B 26] | 0.109 | 0.172 | 0.202 | 0.205 | 0.165
39 | AAAUUUUCAAGUGAUACCAGACAUCUCUAUUACAUUAAUAUAGCUAAGUGAUGUUUAGCAGUCCCUUGGCAGCACAAUUUAAUUA [JR_SSTheophyB_Sub013] | 0.255 | 0.202 | 0.297 | 0.337 | 0.215
40 | GCCUGGGCACGAAGGAGCGCCGUGACAGGUUACUGCCGUGGGCAGUGAUGUUGCUCAAUCUGGCAGGUAGGUCGCGUGCCCAGGC | 0.137 | 0.086 | 0.184 | 0.107 | 0.121
41 | AUUCUAUUGUGAAGGAGCGCGUAUAGUAGUGAUGUUACUAUAAUAAUAGAUAUUUAAUUCUCGCAGGUAGGUCGCACAAUAUAUA [JR_Nu_ExcArginiB_Sub025] | 0.102 | 0.0826 | 0.0963 | 0.0856 | 0.092
42 | AGAUGACACCGAGGAUAUCCUAAUAUGGGUGAUGUUAGCGAUGUUGAAGGUGUAGUGAUGUUAUGCGGAGAAGGCGGUGUUGUUU [BDazzled - #21 - Exc. FMN B] | 0.104 | 0.103 | 0.216 | 0.139 | 0.132
43 | AUUUUUUUGUCAGGAUAUUAGUAUGCGUUUGGUUUGUUAGUGAUGUUGAUAUUUUGUUUAUGUAUUUAAGAAGGGAUUUAGCGGU [yyitemullin] | 0.497 | 0.348 | 0.511 | 0.497 | 0.359
